Reference: US20160139118A1, “NOVEL ASSAY” (GLAXOSMITHKLINE INTELLECTUAL PROPERTY (NO.2) LIMITED, priority 2013, published 2016)

System: CFI
Assay: CFI bioactivity in plasma samples from Alzheimer's disease patients treated with Compound A
Format: in vivo, human
Conditions: 6 mg/kg intravenously
Method: FIG. 15. CFI bioactivity in samples from Alzheimer's disease patients treated with anti-BAM (Compound A).
3.14. Providing Evidence that an Anti-BAM Antibody can Modulate CFI Bioactivity in Alzheimer's Patients. Finally, a set of human samples from Alzheimer disease patients treated with Compound A were evaluated for CFI bioactivity in a single assay. The assay conditions follow: • 80 μg/ml CFH and C3b. • 0.01-25 nL of plasma (half-log dilutions). • Incubation 2 hours. • Measurement of iC3b via ELISA. • Samples from one patient were run in a single assay. • Each assay was run in singlets. • To control inter-assay variability a common plasma sample was run in each assay.

B1: Compound A: anti-BAM antibody comprising a heavy chain of SEQ ID NO: 10 and a light chain of SEQ ID NO: 11 (antibody)
heavy: EVQLVESGGGLVQPGGSLRLSCAVSGFTFSDNGMAWVRQAPGKGLEWVSFISNLAYSIDYADTVTGRFTISRDNAKNSLYLQMNSLRAEDTAVYYCVSGTWFAYWGQGTLVTVSSASTKGPSVFPLAPSSKSTSGGTAALGCLVKDYFPEPVTVSWNSGALTSGVHTFPAVLQSSGLYSLSSVVTVPSSSLGTQTYICNVNHKPSNTKVDKKVEPKSCDKTHTCPPCPAPELAGAPSVFLFPPKPKDTLMISRTPEVTCVWDVSHEDPEVKFNWYVDGVEVHNAKTKPREEQYNSTYRWSVLTVLHQDWLNGKEYKCKVSNKALPAPIEKTISKAKGQPREPQVYTLPPSRDELTKNQVSLTCLVKGFYPSDIAVEWESNGQPENNYKTTPPVLDSDGSFFLYSKLTVDKSRWQQGNVFSCSVMHEALHNHYTQKSLSLSPGK
light: DIVMTQSPLSLPVTPGEPASISCRVSQSLLHSNGYTYLHWYLQKPGQSPQLLIYKVSNRFSGVPDRFSGSGSGTDFTLKISRVEAEDVGVYYCSQTRHVPYTFGGGTKVEIKRTVAAPSVFIFPPSDEQLKSGTASVVCLLNNFYPREAKVQWKVDNALQSGNSQESVTEQDSKDSTYSLSSTLTLSKADYEKHKVYACEVTHQGLSSPVTKSFNRGEC
modifications: Mature H2 heavy chain amino acid sequence.; Mature Light chain amino acid sequence.
- overall increase of CFI bioactivity (after the second administration): 10%
- overall increase of CFI bioactivity (after the third administration): 28%
